Laboratory results from patent US20110117625, “Engineered Nucleases and Their Uses for Nucleic Acid Assembly” (published 2011).

T1: I-CreI D20N/Q47A (UniProt P05725 P05725:1-163, D20N,Q47A)
T1 sequence: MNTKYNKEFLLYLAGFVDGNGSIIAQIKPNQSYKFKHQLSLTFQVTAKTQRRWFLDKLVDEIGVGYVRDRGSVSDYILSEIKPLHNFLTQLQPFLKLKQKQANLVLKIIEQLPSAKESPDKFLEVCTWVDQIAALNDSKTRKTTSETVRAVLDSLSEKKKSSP

T2: I-SceI D44A/D145N (UniProt P03882 P03882:1-235, D44A,D145N)
T2 sequence: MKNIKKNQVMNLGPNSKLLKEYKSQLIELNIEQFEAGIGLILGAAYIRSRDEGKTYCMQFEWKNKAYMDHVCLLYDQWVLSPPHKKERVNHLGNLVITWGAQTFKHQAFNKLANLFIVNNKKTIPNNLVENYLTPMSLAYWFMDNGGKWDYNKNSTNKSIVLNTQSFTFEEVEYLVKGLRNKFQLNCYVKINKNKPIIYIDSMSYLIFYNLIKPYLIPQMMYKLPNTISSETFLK

T3: I-SceI (wild type) (UniProt P03882 P03882:1-235)
T3 sequence: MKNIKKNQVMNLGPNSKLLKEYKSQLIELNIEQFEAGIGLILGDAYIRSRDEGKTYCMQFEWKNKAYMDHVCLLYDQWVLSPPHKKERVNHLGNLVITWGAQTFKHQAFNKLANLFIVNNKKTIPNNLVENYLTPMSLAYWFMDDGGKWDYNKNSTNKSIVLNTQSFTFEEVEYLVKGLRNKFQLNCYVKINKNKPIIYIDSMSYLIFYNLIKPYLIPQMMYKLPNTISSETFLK

T4: Sce7 (I-SceI D44N/D145A, non-cleaving) (UniProt P03882 P03882:1-235, D44N,D145A)
T4 sequence: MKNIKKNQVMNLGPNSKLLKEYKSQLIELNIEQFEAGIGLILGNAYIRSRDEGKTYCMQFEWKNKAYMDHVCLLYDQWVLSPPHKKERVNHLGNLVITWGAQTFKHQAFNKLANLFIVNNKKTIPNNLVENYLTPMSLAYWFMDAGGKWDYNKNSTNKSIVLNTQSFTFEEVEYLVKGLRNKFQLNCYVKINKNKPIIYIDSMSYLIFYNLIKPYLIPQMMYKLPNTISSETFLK

B1: pSCI insert with I-SceI and I-CreI sites (142 bp) (dsDNA)
DNA 1: AATTCTGGTTCCGAAGCCTGTCCTGCACGCTAGGGATAACAGGGTAATAATATATGAATCCAAACTAGAGCGGGGCTCTTGACGTTTGGCTCAAAACGTCGTGAGACAGTTTGGTCAGTTGTAAATATCTAATATTCCAATG
DNA 2: GATCCATTGGAATATTAGATATTTACAACTGACCAAACTGTCTCACGACGTTTTGAGCCAAACGTCAAGAGCCCCGCTCTAGTTTGGATTCATATATTATTACCCTGTTATCCCTAGCGTGCAGGACAGGCTTCGGAACCAG
B2: 80-bp I-SceI site duplex (dsDNA)
DNA 1: GAATTCTGGTTCCGAAGCCTGTCCTGCACGCTAGGGATAACAGGGTAATAATATATGAATCCAAACTAGAGCGGGGCTCT
DNA 2: AGAGCCCCGCTCTAGTTTGGATTCATATATTATTACCCTGTTATCCCTAGCGTGCAGGACAGGCTTCGGAACCAGAATTC

How the values were obtained:
[1] = biological target: T1, I-CreI D20N/Q47A; test: EMSA; 5 nM DNA, 20 mM Tris pH 9.0, 37 C; printed D2ON; settings: tags: 6xHis N-terminal with TEV site; chain copies: 2; EcoRI/BamHI overhangs
Procedure: (§1) Various concentrations of I-SceI or I-CreI (generally between 2.5 and 50 nM) were mixed with 5 nM DNA in 20 mM tris.HCl, 100 ug/mL bovine serum albumin, pH 8.0 (for I-SceI variants) or pH 9.0 (for I-CreI variants) in a total volume of 10 ìL. After incubation for 20 minutes at 37° C., 1 ìL of 10× DNA retardation gel loading buffer (Invitrogen) was added and the samples were loaded onto a 1 mm thick DNA retardation gel (Invitrogen). Electrophoresis was performed for 45 minutes at 175 Volts in 0.5× TBE buffer (Invitrogen). Gels were stained for 45 minutes with SYBR Gold stain (Invitrogen) and visualized by UV illumination. Densitometry was performed on a digital image of the gel to determine the relative intensities of the bands corresponding to bound and unbound DNA. Intensities of bound and unbound DNA were used to determine the concentrations of bound and free enzyme at each initial concentration. […] Binding affinities (dissociation constants, Kd) were determined by plotting the concentration of bound enzyme on the y-axis and the concentration of free enzyme on the x-axis for each data point and fitting the data to a rectangular hyperbola using standard nonlinear least-squares fitting procedures, using the equation y=([DNA]*x)/(Kd+x).

[2] = biological target: T2, I-SceI D44A/D145N; test: EMSA; 5 nM DNA, 20 mM Tris pH 8.0, 37 C; settings: tags: 6xHis N-terminal with TEV site; EcoRI/BamHI overhangs
Procedure: as §1

[3] = biological target: T3, I-SceI (wild type); test: EMSA; 20 mM Tris pH 9.0, 25 mM NaCl, 10 mM CaCl2, 37 C?; settings: tags: 6xHis N-terminal with TEV site (as for variants)
[4] = biological target: T4, Sce7 (I-SceI D44N/D145A, non-cleaving); test: EMSA; 20 mM Tris pH 9.0, 25 mM NaCl, 10 mM CaCl2, 37 C; settings: tags: 6xHis N-terminal with TEV site
Procedure: The binding affinities for the I-SceI recognition sites were determined using a gel-shift assay and are depicted in Table 3.
To measure the dissociation constants, the binding protein of interest, at a range of concentrations between 2 and 400 nM, was incubated with 10 nM DNA substrate in 20 ìL of 20 mM Tris.HCl, pH 9.0, 25 mM NaCl, 10 mM CaCl2, 1 mM DTT, 2% glycerol, and 0.1 mg/mL BSA, for 20 minutes at 37° C. (Sce7 and CdnDI) or 42° C. (CdnDII). Two ìL of 10′ loading buffer were added to each sample, and 10 ìL of each mixture were loaded onto 6% polyacrylamide DNA retardation gels (Invitrogen), and run for 30 minutes at 175 V. The gels were stained with SYBR Gold (Invitrogen) and visualized with ultraviolet light. DNA-containing bands were quantified by densitometry as described above. Concentrations of bound and free protein were calculated from the input amount of DNA and from ratios of band intensities, and the data were fit using Origin software (Originlab, Northampton, Mass.) to the following equation: […]

Row | Binder | binding result [1] | binding result [2] | Kd [3] [nM] | Kd [4] [nM]
1 | B1 | binds | binds | – | –
2 | B2 | – | – | 62 | 13
